One test deals with T1, human ICOS (human, UniProt Q9Y6W8 21-199).
T1 construct: whole, on cells
T1 sequence (looked up): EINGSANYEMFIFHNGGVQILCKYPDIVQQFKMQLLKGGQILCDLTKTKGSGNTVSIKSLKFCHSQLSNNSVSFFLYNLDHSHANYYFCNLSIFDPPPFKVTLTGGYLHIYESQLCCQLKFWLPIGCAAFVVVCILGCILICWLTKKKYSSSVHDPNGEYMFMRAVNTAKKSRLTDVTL
Kind of test: flow cytometry, Expi293 cells with human ICOS. On the procedure: Binding studies were carried out on transfected HEK293 cells generated to express the full-length mammalian (human) surface ligands, CD28, ICOS or CTLA-4, using a transient transfection system (Life Technologies, USA). As a control, binding to mock (non-transfected) cells also was assessed. For staining by flow cytometry, 200,000 cells of appropriate transient transfection or negative control (mock) were plated in 96 well round bottom plates, and, then incubated in staining buffer (PBS, phosphate buffered saline; 1% BSA, bovine serum albumin; and 0.1% sodium azide) for 20 minutes to block non-specific binding. Cells were resuspended in staining buffer containing 100 nM to 1 nM variant immunomodulatory protein in 50 μL. Mean Fluorescence Intensity (MFI) was calculated for each transfectant and negative parental line with Cell Quest Pro software (Becton Dickinson, USA) or a Hypercyt flow cytometer (Intellicyte, USA).
(§1) Expi293 cells transfected with cognate binding partners, human CD28, ICOS and CTLA4, were used as target cells in binding studies.

A further test concerns the target T2, human CD28 (human, UniProt P10747 19-220).
T2 construct: whole, on cells
Nature of the test: flow cytometry, Expi293 cells with human CD28.
Source text: as §1

For another test, the target named is T3, human CTLA-4 (human, UniProt P16410 36-223).
T3 construct: whole, on cells
T3 sequence (P16410 36-223): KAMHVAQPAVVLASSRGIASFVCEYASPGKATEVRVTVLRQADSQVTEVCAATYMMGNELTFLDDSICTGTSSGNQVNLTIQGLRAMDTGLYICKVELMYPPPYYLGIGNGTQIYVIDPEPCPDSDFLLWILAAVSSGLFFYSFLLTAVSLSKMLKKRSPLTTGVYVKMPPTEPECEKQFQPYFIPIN
Nature of the test: flow cytometry, Expi293 cells with human CTLA-4.
Source text: as §1

B1: variant ICOSL ECD-Fc N52H/N57Y/Q100P, AAA linker, Fc C220S/L234A/L235E/G237A (SEQ ID NO: 40) (Fc fusion)
chain: DTQEKEVRAMVGSDVELSCACPEGSRFDLNDVYVYWQTSESKTVVTYHIPQHSSLEYVDSRYRNRALMSPAGMLRGDFSLRLFNVTPQDEQKFHCLVLSPSLGFQEVLSVEVTLHVAANFSVPVVSAPHSPSQDELTFTCTSINGYPRPNVYWINKTDNSLLDQALQNDTVFLNMRGLYDVVSVLRIARTPSVNIGCCIENVLLQQNLTVGSQTGNDIGERDKITENPVSTGEKNAATAAAEPKSSDKTHTCPPCPAPEAEGAPSVFLFPPKPKDTLMISRTPEVTCVVVDVSHEDPEVKFNWYVDGVEVHNAKTKPREEQYNSTYRVVSVLTVLHQDWLNGKEYKCKVSNKALPAPIEKTISKAKGQPREPQVYTLPPSREEMTKNQVSLTCLVKGFYPSDIAVEWESNGQPENNYKTTPPVLDSDGSFFLYSKLTVDKSRWQQGNVFSCSVMHEALHNHYTQKSLSLSPGK
notes: Made in 293 cells; Fc or allotypes thereof
B1: the “MFI (ΔWT)” value with human ICOS was found to be 1.2 fold vs WT; in the test with human CD28 it was 13.1 fold vs WT; in the test with human CTLA-4, 18.2 fold vs WT.

B2: variant ICOSL ECD-Fc N52H/N57Y/Q100R/F172S, AAA linker, Fc C220S/L234A/L235E/G237A (SEQ ID NO: 40) (Fc fusion)
chain: DTQEKEVRAMVGSDVELSCACPEGSRFDLNDVYVYWQTSESKTVVTYHIPQHSSLEYVDSRYRNRALMSPAGMLRGDFSLRLFNVTPQDEQKFHCLVLSRSLGFQEVLSVEVTLHVAANFSVPVVSAPHSPSQDELTFTCTSINGYPRPNVYWINKTDNSLLDQALQNDTVSLNMRGLYDVVSVLRIARTPSVNIGCCIENVLLQQNLTVGSQTGNDIGERDKITENPVSTGEKNAATAAAEPKSSDKTHTCPPCPAPEAEGAPSVFLFPPKPKDTLMISRTPEVTCVVVDVSHEDPEVKFNWYVDGVEVHNAKTKPREEQYNSTYRVVSVLTVLHQDWLNGKEYKCKVSNKALPAPIEKTISKAKGQPREPQVYTLPPSREEMTKNQVSLTCLVKGFYPSDIAVEWESNGQPENNYKTTPPVLDSDGSFFLYSKLTVDKSRWQQGNVFSCSVMHEALHNHYTQKSLSLSPGK
notes: as for B1
With B2, the “MFI (ΔWT)” value in the test with human ICOS stood at 1.3 fold vs WT; with human CD28, 12.5 fold vs WT; with human CTLA-4, 20.6 fold vs WT.

B3: variant ICOSL ECD-Fc N52H/N57Y/Q100R/F172S, G4S linker, Fc C220S/L234A/L235E/G237A (SEQ ID NO: 40) (Fc fusion)
chain: DTQEKEVRAMVGSDVELSCACPEGSRFDLNDVYVYWQTSESKTVVTYHIPQHSSLEYVDSRYRNRALMSPAGMLRGDFSLRLFNVTPQDEQKFHCLVLSRSLGFQEVLSVEVTLHVAANFSVPVVSAPHSPSQDELTFTCTSINGYPRPNVYWINKTDNSLLDQALQNDTVSLNMRGLYDVVSVLRIARTPSVNIGCCIENVLLQQNLTVGSQTGNDIGERDKITENPVSTGEKNAATGGGGSEPKSSDKTHTCPPCPAPEAEGAPSVFLFPPKPKDTLMISRTPEVTCVVVDVSHEDPEVKFNWYVDGVEVHNAKTKPREEQYNSTYRVVSVLTVLHQDWLNGKEYKCKVSNKALPAPIEKTISKAKGQPREPQVYTLPPSREEMTKNQVSLTCLVKGFYPSDIAVEWESNGQPENNYKTTPPVLDSDGSFFLYSKLTVDKSRWQQGNVFSCSVMHEALHNHYTQKSLSLSPGK
notes: as for B1
For B3, the figures for the “MFI (ΔWT)” value in the test with human ICOS, with human CD28 and with human CTLA-4 were 1.4 fold vs WT, 12.9 fold vs WT and 22.7 fold vs WT, respectively.

B4: variant ICOSL ECD-Fc N52H/N57Y/Q100P, G4S linker, Fc C220S/L234A/L235E/G237A (SEQ ID NO: 40) (Fc fusion)
chain: DTQEKEVRAMVGSDVELSCACPEGSRFDLNDVYVYWQTSESKTVVTYHIPQHSSLEYVDSRYRNRALMSPAGMLRGDFSLRLFNVTPQDEQKFHCLVLSPSLGFQEVLSVEVTLHVAANFSVPVVSAPHSPSQDELTFTCTSINGYPRPNVYWINKTDNSLLDQALQNDTVFLNMRGLYDVVSVLRIARTPSVNIGCCIENVLLQQNLTVGSQTGNDIGERDKITENPVSTGEKNAATGGGGSEPKSSDKTHTCPPCPAPEAEGAPSVFLFPPKPKDTLMISRTPEVTCVVVDVSHEDPEVKFNWYVDGVEVHNAKTKPREEQYNSTYRVVSVLTVLHQDWLNGKEYKCKVSNKALPAPIEKTISKAKGQPREPQVYTLPPSREEMTKNQVSLTCLVKGFYPSDIAVEWESNGQPENNYKTTPPVLDSDGSFFLYSKLTVDKSRWQQGNVFSCSVMHEALHNHYTQKSLSLSPGK
notes: as for B1
As for B4, the entries for the “MFI (ΔWT)” value with human ICOS, with human CD28 and with human CTLA-4 were 1.3 fold vs WT, 13.4 fold vs WT and 17.1 fold vs WT, respectively.

The values are drawn from US20220218785A1 (ALPINE IMMUNE SCIENCES, published 2022).
